Target: Escherichia coli FtsZ (Escherichia coli) (UniProt P0A9A6)

Substance: Escherichia coli FtsZ (from UniProt P0A9A6 1-383) (natural protein)
- Pi released by GTP hydrolysis (MESG/PNP phosphate assay), endpoint as percent of the theoretical maximum, pH 6.0, 0.2 mM GTP, 11 uM FtsZ: 90%
- Pi released by GTP hydrolysis (MESG/PNP phosphate assay), endpoint as percent of the theoretical maximum, pH 6.5, 0.2 mM GTP, 11 uM FtsZ: 96%
- Pi released by GTP hydrolysis (MESG/PNP phosphate assay), endpoint as percent of the theoretical maximum, pH 7.0, 0.2 mM GTP, 11 uM FtsZ: 87%
